Results taken from paper PMC9408429, “Thermodynamic Swings: How Ideal Complex of Cas9–RNA/DNA Forms”.

Biological target: Cas9 (UniProt Q99ZW2 1-1368)
Assay: ITC; RNA 62.5 uM into Cas9 5 uM; n = 2.10; triplicate; dH -399.10 kcal/mol; ITC, 20 mM HEPES pH 7.6, 150 mM NaCl, 25 °C, 200 rpm; no Mg2+ listed
Conditions: protein: recombinant; intramolecular helices; dimer possible

Sequence of Cas9 (Q99ZW2 whole entry): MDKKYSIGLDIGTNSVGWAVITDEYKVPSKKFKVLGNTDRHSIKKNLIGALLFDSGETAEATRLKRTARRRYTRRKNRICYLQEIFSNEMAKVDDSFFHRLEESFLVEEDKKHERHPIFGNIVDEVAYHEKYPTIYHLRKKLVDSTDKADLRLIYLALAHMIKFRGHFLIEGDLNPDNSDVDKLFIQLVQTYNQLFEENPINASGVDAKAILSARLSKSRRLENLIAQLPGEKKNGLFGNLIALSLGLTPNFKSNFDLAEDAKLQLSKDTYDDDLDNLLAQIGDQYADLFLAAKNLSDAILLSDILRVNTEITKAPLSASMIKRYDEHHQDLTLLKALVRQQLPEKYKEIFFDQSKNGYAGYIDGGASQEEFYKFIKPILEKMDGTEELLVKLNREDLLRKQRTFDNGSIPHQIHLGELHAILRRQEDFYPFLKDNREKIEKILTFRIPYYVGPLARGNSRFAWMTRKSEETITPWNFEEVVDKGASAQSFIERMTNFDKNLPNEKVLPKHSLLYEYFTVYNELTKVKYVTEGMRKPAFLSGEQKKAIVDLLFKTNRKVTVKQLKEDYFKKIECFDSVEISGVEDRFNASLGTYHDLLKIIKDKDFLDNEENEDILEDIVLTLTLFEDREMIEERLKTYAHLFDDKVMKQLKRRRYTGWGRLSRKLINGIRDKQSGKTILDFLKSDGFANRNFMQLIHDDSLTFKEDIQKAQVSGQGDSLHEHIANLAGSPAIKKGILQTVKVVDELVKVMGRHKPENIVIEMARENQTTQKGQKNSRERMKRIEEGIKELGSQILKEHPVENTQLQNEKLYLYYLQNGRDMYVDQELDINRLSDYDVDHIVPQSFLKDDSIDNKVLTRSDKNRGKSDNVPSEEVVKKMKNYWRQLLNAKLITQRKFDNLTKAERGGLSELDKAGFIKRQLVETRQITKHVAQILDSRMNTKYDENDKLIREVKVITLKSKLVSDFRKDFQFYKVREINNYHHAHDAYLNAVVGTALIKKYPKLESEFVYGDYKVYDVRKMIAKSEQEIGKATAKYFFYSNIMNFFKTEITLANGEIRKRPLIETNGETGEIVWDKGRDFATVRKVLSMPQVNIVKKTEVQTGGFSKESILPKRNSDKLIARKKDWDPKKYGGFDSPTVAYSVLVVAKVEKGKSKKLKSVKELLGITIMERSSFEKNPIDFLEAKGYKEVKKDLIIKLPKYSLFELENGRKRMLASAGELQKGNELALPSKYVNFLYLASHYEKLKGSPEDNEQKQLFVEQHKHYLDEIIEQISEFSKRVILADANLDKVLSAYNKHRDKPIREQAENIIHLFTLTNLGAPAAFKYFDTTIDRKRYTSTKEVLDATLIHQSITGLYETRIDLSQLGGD

B1: RNA (sgRNA) (structured_RNA)
RNA: GGUUGGACAUGCUCGACAUUCGUUUUAGAGCUAGAAAUAGCAAGUUAAAAUAAGGCUAGUCCGUUAUCAACUUGAAAAAGUGGCACCGAGUCGGUGCUUUUUU
Kd: 2210 nM
